This is an account of results in publication doi:10.1101/2025.01.27.635100 (bioRxiv, 2025).

Several values for one entry are separate records, joined by “and”; a condition that tells them apart may be missing. Equal entries are not always repeated.

T1: S1’’ (S1_(622-762)), extended version of S1_TPR3 (human, UniProt Q07617 622-762)
T1 sequence: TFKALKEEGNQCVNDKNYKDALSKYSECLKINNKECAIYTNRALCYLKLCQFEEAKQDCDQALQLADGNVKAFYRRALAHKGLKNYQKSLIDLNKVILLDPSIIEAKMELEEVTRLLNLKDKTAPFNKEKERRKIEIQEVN

B1: P2_CS domain (P2_(231-315)) (domain or fragment)
chain: KMPAYELKIVHDHSEKPLKIELKVELPGINSVSLCDLSVSEDDLLIEVSEKYRLHLNLPKLIDTEMTTAKFIKEKSTLIITMPLV
B2: S1_C (SPAG1 796-926), isotope-labelled NMR sample (domain or fragment)
chain: EKLPIAKPNNAYEFGQIINALSTRKDKEACAHLLAITAPKDLPMFLSNKLEGDTFLLLIQSLKNNLIEKDPSLVYQHLLYLSKAERFKMMLTLISKGQKELIEQLFEDLSDTPNNHFTLEDIQALKRQYEL
B3: S1’P2 heterodimer, SPR preparation (complex)
chain 1: TFKALKEEGNQCVNDKNYKDALSKYSECLKINNKECAIYTNRALCYLKLCQFEEAKQDCDQALQLADGNVKAFYRRALAHKGLKNYQKSLIDLNKVILLDPSIIEAKMELEEVTRLLNLKDKTAPFNKEKERRKIEIQEVNEGKEEPGRPAGEVSMGCLASEKGGKSSRSPEDPEKLPIAKPNNAYEFGQIINALSTRKDKEACAHLLAITAPKDLPMFLSNKLEGDTFLLLIQSLKNNLIEKDPSLVYQHLLYLSKAERFKMMLTLISKGQKELIEQLFEDLSDTPNNHFTLEDIQALKRQYEL
chain 2: METSSKGLLTQVTQFWNLLDDLAQSDPEGYEKFIQQQLKEGKQLCAAPEPQLCLQTRILKPKEKILFINLCQWTRIPAPQSTTHPVPLTVGKPEDTTEISDAYTVIDVAYNPDVLHAAEKDQVKKNQLIQMAMKCIEEKFQFTLSHSYHITKFRIKGSIQRMKQNLMGIQTDSIDLREKMRRELTLGQIRSSTMSNPDHFPQLLLPKDQVSGKAVCLIEEISSTEIQVEMKMPAYELKIVHDHSEKPLKIELKVELPGINSVSLCDLSVSEDDLLIEVSEKYRLHLNLPKLIDTEMTTAKFIKEKSTLIITMPLV
B4: P2 (PIH1D2), His tag cleaved, co-purified with S1’ (natural protein)
chain: B3 chain 2
B5: S1’P2 heterodimer, preparation for cryo-EM, native MS, mass photometry and XL-MS (complex)
chain 1: B3 chain 1
chain 2: B3 chain 2
B6: S1’ (SPAG1 622-926), untagged, co-expressed with His-P2 (domain or fragment)
chain: B3 chain 1
B7: S1’P2_(231-315) heterodimer, SPR preparation (complex)
chain 1: B3 chain 1
chain 2: B1 chain

Experiment [1] addresses T1, S1’’ (S1_(622-762)), extended version …. Description: NMR.
Experiment [2] concerns the target R1R2 complex (6xHis-R1, 3xFLAG-R2), unlabeled, NMR interaction experiments (human, UniProt Q9Y265;Q9Y230). Description: NMR titration.
Experiment [3] concerns the target R1^D302N R2^D299N complex, double active site mutant (no hydrolysis, ATP loaded) (human, UniProt Q9Y265;Q9Y230, D302N | D299N). Description: SPR. (SPR reads the build-up and loss of mass on a sensor chip optically.)
The target in experiment [4] is RUVBL2 (R2) as a chain of the reconstituted R2S’P sample (human, UniProt Q9Y230 1-463). Description: cross-linking.
Experiment [5] addresses RUVBL1 (R1) as a chain of the reconstituted R2S’P sample (human, UniProt Q9Y265 1-456). Description: cross-linking.
Experiment [6] addresses T2, R1R2 hetero-hexamer (pETDuet:His-R1R2-FH8), preparation for cryo-EM, native MS, mass photometry and XL-MS (human, UniProt Q9Y265;Q9Y230). Description: native MS.
In experiment [7] the target is T2, R1R2 hetero-hexamer …. Description: mass photometry.
Experiment [8] addresses B4. Description: cross-linking.

T2 sequence (Q9Y265 whole entry, chain 1 of 2): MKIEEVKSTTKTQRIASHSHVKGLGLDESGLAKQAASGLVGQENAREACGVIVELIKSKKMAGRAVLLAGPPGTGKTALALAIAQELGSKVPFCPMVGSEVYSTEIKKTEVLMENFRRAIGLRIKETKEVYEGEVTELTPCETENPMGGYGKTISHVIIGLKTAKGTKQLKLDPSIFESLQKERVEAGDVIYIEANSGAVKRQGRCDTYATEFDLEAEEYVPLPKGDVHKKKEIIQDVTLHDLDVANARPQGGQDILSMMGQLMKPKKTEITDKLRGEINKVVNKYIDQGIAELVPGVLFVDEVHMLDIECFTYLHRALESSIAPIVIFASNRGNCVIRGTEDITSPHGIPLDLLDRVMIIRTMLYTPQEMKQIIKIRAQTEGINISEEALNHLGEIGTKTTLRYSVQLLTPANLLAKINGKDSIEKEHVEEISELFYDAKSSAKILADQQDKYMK
T2 sequence (Q9Y230 whole entry, chain 2 of 2): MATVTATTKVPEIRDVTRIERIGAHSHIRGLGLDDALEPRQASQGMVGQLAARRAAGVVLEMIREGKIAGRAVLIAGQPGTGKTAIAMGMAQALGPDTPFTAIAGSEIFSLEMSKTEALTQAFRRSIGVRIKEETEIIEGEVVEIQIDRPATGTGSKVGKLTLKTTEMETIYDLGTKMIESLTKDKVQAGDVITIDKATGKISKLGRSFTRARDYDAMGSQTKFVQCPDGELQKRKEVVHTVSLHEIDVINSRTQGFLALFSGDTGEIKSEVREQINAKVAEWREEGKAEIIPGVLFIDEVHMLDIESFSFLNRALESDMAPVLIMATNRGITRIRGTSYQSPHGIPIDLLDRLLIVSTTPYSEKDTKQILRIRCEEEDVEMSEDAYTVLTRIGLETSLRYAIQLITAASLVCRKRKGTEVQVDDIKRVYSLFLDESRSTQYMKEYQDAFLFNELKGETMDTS
Sequence of RUVBL2 (R2) as a chain of the reconstituted R2S’P sample (Q9Y230 whole entry): as the sequence (Q9Y230 whole entry, chain 2 of 2) above
Sequence of R1^D302N R2^D299N complex, double active site mutant (no hydrolysis, ATP loaded) (Q9Y265 whole entry D302N, chain 1 of 2): as the sequence (Q9Y265 whole entry, chain 1 of 2) above, with D302N counted along it
Sequence of R1^D302N R2^D299N complex, double active site mutant (no hydrolysis, ATP loaded) (Q9Y230 whole entry D299N, chain 2 of 2): as the sequence (Q9Y230 whole entry, chain 2 of 2) above, with D299N counted along it
Sequence of R1R2 complex (6xHis-R1, 3xFLAG-R2), unlabeled, NMR interaction experiments (Q9Y265 whole entry, chain 1 of 2): as the sequence (Q9Y265 whole entry, chain 1 of 2) above
Sequence of R1R2 complex (6xHis-R1, 3xFLAG-R2), unlabeled, NMR interaction experiments (Q9Y230 whole entry, chain 2 of 2): as the sequence (Q9Y230 whole entry, chain 2 of 2) above
Sequence of RUVBL1 (R1) as a chain of the reconstituted R2S’P sample (Q9Y265 whole entry): as the sequence (Q9Y265 whole entry, chain 1 of 2) above

For B1, the binding result in experiment [1] is given as “binds”. Regarding B2, in experiment [2], the binding result is reported as “binds”. As for B3, the binding result in experiment [3] was “binds”. Take B4: the binding result in experiment [4] and in experiment [5] was “binds” in each case.

Turning to B5, the stoichiometry N (usually the number of molecules, sites or subunits per partner or assembly) is 1 S’P2 per R1R2 hexamer and 2 S’P2 per R1R2 hexamer in experiment [6]; 1 S1’P2 per R1R2 hexamer and 2 S1’P2 per R1R2 hexamer and 1 S1’P2 per R1R2 dodecamer and 2 S1’P2 per R1R2 dodecamer in experiment [7]. Regarding B6, the binding result in experiment [8] and in experiment [4] was “binds” each time.

For B7, in experiment [3], the binding result was “binds”.
